Consider 1 molecule from patent publication US20130089497A1 (Genentech, published 2013).

For orientation: Kd means the concentration at which binding is half-saturated. Lower therefore signals tighter binding.

For assay [1], the target named is T1, human FcRH5 on stably transfected cells (BJAB.huFcRH5, OPM2.huFcRH5) (human, UniProt Q96RD9 16-977).
T1 construct: also called BJAB-FcRH5; OPM2-FcRH5
T1 chain: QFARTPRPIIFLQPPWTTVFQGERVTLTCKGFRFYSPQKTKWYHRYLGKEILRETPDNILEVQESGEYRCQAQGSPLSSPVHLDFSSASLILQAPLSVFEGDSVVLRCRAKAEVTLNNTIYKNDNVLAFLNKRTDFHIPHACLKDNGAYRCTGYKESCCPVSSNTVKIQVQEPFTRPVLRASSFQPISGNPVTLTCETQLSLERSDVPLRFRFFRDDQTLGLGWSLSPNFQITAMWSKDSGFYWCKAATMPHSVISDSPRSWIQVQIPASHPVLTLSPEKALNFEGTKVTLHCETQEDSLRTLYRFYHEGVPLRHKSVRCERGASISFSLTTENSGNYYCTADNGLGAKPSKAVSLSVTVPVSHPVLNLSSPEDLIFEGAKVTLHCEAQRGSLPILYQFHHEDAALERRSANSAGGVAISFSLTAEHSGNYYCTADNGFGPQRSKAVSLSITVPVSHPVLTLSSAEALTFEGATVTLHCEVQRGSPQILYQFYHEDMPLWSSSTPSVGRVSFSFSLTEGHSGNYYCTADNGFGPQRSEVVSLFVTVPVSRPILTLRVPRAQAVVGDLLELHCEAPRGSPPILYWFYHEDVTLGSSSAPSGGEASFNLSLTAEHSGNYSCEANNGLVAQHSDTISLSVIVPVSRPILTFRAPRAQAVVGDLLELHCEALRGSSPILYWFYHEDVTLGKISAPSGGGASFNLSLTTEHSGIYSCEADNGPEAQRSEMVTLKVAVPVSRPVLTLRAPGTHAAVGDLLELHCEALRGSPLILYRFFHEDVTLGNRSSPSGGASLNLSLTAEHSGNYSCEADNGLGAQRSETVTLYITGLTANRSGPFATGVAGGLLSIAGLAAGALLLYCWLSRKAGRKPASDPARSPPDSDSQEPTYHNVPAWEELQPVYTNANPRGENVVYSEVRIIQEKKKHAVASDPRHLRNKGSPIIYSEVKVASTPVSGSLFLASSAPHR
Nature of the assay: Scatchard analysis: 0.5 nM 125I-labeled antibody competed with the unlabeled antibody (50 to 0.02 nM) on BJAB.huFcRH5 cells, 4 h at 4 C; St. Error 0.007.

In assay [2] the target is T2, gD tagged human FcRH3 on SVT2 cells (human, UniProt Q96P31 18-734).
T2 construct: whole, on cells; also called huFcRH3; not shown: gD tag; the construct for this FcRH is not described
T2 sequence (looked up): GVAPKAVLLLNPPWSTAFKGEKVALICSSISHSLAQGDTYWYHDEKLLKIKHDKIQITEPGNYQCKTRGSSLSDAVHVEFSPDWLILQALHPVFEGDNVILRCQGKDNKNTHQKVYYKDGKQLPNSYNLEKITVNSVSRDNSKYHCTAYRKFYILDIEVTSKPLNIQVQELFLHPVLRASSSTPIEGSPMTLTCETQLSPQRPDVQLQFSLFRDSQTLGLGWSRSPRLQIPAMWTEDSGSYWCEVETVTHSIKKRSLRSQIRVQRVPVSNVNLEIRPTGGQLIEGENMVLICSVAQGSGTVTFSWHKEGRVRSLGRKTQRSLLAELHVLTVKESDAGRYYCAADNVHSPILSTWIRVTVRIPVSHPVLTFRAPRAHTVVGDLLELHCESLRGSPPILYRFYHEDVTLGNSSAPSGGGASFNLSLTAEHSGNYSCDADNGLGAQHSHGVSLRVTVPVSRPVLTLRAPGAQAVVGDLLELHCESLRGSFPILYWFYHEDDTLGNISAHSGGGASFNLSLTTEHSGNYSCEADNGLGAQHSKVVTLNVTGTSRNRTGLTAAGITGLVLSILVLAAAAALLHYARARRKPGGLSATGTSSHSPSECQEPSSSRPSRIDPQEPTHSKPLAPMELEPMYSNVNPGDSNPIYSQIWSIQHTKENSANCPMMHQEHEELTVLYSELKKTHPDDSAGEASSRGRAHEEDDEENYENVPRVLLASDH
Nature of the assay: FACS, SVT2.MSCV.gD.FcRH3 cells, PE secondary antibody. Background: A flow cytometer gives signals particle by particle.

Assay [3] addresses T3, gD tagged human FcRH2 on SVT2 cells (human, UniProt Q96LA5 20-508).
T3 construct: whole, on cells; also called huFcRH2; not shown: gD tag; the construct for this FcRH is not described
T3 sequence (looked up): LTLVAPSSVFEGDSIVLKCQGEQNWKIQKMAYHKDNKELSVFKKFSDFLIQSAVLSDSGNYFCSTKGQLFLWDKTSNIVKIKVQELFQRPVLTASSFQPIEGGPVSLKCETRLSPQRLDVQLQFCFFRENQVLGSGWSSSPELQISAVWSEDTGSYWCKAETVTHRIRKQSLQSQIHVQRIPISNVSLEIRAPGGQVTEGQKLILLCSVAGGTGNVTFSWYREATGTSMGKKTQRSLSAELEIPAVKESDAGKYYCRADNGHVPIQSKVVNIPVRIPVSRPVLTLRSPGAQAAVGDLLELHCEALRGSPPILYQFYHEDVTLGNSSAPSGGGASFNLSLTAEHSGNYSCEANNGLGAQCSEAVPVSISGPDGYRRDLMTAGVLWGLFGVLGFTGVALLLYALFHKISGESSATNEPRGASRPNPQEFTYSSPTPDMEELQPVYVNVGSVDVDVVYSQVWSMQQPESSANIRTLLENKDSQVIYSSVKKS
Nature of the assay: FACS, SVT2.MSCV.gD.FcRH2 cells, PE secondary antibody.

Assay [4] concerns the target T4, gD tagged human FcRH1 on SVT2 cells (human, UniProt Q96LA6 17-429).
T4 construct: whole, on cells; also called huFcRH1; not shown: gD tag
T4 sequence (looked up): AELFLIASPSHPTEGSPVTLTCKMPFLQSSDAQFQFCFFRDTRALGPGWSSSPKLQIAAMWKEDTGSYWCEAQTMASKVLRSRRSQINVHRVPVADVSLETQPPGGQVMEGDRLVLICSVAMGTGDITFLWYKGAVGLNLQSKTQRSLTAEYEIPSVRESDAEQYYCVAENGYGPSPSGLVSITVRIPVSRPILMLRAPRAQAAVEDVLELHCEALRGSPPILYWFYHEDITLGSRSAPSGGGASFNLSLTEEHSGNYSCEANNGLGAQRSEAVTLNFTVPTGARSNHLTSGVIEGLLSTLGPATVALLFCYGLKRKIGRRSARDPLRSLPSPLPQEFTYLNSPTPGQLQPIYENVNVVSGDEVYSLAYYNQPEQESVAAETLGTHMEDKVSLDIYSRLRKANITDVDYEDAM
The experiment in a line: FACS, SVT2.MSCV.gD.FcRH1 cells, PE secondary antibody.

B1: murine monoclonal antibody anti-FcRH5-13G9 (antibody, V domains shown)
VH: EVQLVQSGPELKKPGETVKISCKASGYTFTNYGMNWVKQAPGKGLKWMGWVNTYTGEPTYTDDFKGRFAFSVETSASTVFLQINNLKNEDTATYFCARRSIPYYYAMDYWGQGTSLT
VL: DIVMTQSQKIMSTSVGDRVNVTCKASQNVGSNVAWYHQKPGQSPKALIYSASYRYSGVPDRFTGSGSGTDFTLTISNVQSEDLAEYFCQQYKTWTFGGGTKLEIKR
notes: Whole murine IgG from hybridoma; also called 13G9.1.1; mu13G9
Take B1: in assay [1], the Kd stood at 0.13 nM. Also, the binding result in assay [2], in assay [3] and in assay [4] was “no binding (tested: 1.0 ug per about 10^6 cells (p-1120))” in each case.
